Experimental data as given in the supplement of paper PMC7877785.
± gives the uncertainty stated by the source.

Assay: self-splicing fitness, log relative to wild type (ln ratio); higher = more splicing; Tetrahymena group I intron in knt gene, E. coli kanamycin selection, DiMSum; sequences stand for … in CUCUCU…GGAGGGAAAAGUUAUCAGGCAUGCACCUGGUAGCUAGUCUUUAAACCAAUAGAUUGCAUCGGUUUAAAAGGCAAGACCGUCAAAUUGCGGGAAAGGGGUCAACAGCCGUUCAGUACCAAGUCUCAGGGGAAACUUUGAGAUGGCCUUGCAAAGGGUAUGGUAAUAAGCUGACGGACAUGGUCCUAACCACGCAGCCAAGUCCUAAGUCAACAGAUCUUCUGUUGAUAUGGAUGCAGUUCACAGACUAAAUGUCGGUCGGGGAAGAUGUAUUCUUCUCAUAAGAUAUAGUCGGACCUCUCCUUAAUGGGAGCUAGCGGAUGAAGUGAUGCAACACUGGAGCCGCUGGGAACUAAUUUGUAUGCGAAAGUAUAUUGAUUAGUUUUGGAGUACUCGUGGUCG
In short: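 The eight P1ex-region nucleotides of an intron in the knt kanamycin-resistance gene on pET-22b(+) were all randomised and the library put into E. coli BL21(DE3). Six replicate transformations were grown overnight at 37°C or 30°C on LB agar with or without 25 μg/mL kanamycin, together with 100 μg/mL carbenicillin, 50 μM IPTG and 0.2% rhamnose. Colonies were pooled and amplicon-sequenced on an Illumina HiSeq 2500. Fitness from DiMSum is the error-weighted combination of wild-type-normalised replicate fold changes, kanamycin over none.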

Sequence | self-splicing fitness (ln) (30 °C) | self-splicing fitness (ln) (37 °C)
ACUAAGCAAUAUUACGGUGG | -3.1 ± 0.11 | -2.84 ± 0.16
CGUCAGCAAUAUUACGAGAG | -2.91 ± 0.15 | -2.76 ± 0.25
CACUAGCAAUAUUACGCGCG | -1.1 ± 0.11 | -0.054 ± 0.14
UGAUAGCAAUAUUACGUGAG | -0.705 ± 0.05 | -0.543 ± 0.087
GGGCAGCAAUAUUACGAUAC | -1.1 ± 0.11 | 0.201 ± 0.12
GCGGAGCAAUAUUACGCCCG | -1.19 ± 0.5 | 
AAUGAGCAAUAUUACGAAAA | -3.58 ± 0.4 | -2.1 ± 0.27
ACCGAGCAAUAUUACGAAGC | -3.47 ± 0.36 | -2.76 ± 0.36
CAGUAGCAAUAUUACGUACA | -1.46 ± 0.14 | -1.83 ± 0.16
GACGAGCAAUAUUACGUCUC | -3.48 ± 0.36 | -1.23 ± 0.28
GUUCAGCAAUAUUACGGCCG | -2.57 ± 0.24 | -0.72 ± 0.17
GUUAAGCAAUAUUACGGGGU | -2.73 ± 0.28 | -2.88 ± 0.35
GACUAGCAAUAUUACGACAG | -2.92 ± 0.14 | -2.4 ± 0.2
GCGUAGCAAUAUUACGUGUU | -3.07 ± 0.21 | -0.761 ± 0.12
AUCCAGCAAUAUUACGCAGA | -1.38 ± 0.11 | -0.448 ± 0.099
AAUAAGCAAUAUUACGACAC | -1.12 ± 0.16 | -0.462 ± 0.16
UCGAAGCAAUAUUACGAGUC | -3.45 ± 0.42 | 
AAGGAGCAAUAUUACGGUCA |  | -2.26 ± 0.32
GAGUAGCAAUAUUACGAAGG |  | -2.74 ± 0.44
AUCGAGCAAUAUUACGUUGC | -2.95 ± 0.29 | -1.7 ± 0.27

Sequence | self-splicing fitness (ln) (30 °C) | self-splicing fitness (ln) (37 °C)
GCAAAGCAAUAUUACGUCCU | -0.435 ± 0.1 | 0.035 ± 0.12
GGUCAGCAAUAUUACGGCCG | -1.83 ± 0.33 | -1.64 ± 0.33
GGGAAGCAAUAUUACGGUUG | -4.02 ± 0.33 | -2.74 ± 0.22
AAUCAGCAAUAUUACGGUUC | -2.32 ± 0.11 | -1.91 ± 0.17
GAAGAGCAAUAUUACGAUGU | -2.54 ± 0.2 | -1.39 ± 0.15
CUUAAGCAAUAUUACGAACU |  | -2.61 ± 0.38
GAGAAGCAAUAUUACGCGAA | -2 ± 0.11 | -1.93 ± 0.17
CACCAGCAAUAUUACGGUAG | -1.97 ± 0.063 | -1.69 ± 0.09
AAACAGCAAUAUUACGACCC | -0.763 ± 0.11 | 0.302 ± 0.13
CAAAAGCAAUAUUACGUCUU | -2.5 ± 0.082 | -1.24 ± 0.08
AGUAAGCAAUAUUACGGCCC | -0.317 ± 0.14 | -0.0183 ± 0.22
GGAUAGCAAUAUUACGUAGA | -1.01 ± 0.17 | -1.4 ± 0.21
CCGCAGCAAUAUUACGCCUA | -3.92 ± 0.31 | -3.58 ± 0.3
AAACAGCAAUAUUACGAUUA | -1.16 ± 0.092 | -0.343 ± 0.094
GAAAAGCAAUAUUACGGCCA | -1.03 ± 0.16 | 0.81 ± 0.21
AAAGAGCAAUAUUACGAGGC | -3.57 ± 0.24 | -2.74 ± 0.28
UCAAAGCAAUAUUACGAUGG | -1.91 ± 0.1 | 0.127 ± 0.11
AUUUAGCAAUAUUACGCGGA | -1.73 ± 0.23 | -0.805 ± 0.17
CCAUAGCAAUAUUACGACGU | -3.3 ± 0.35 | -2.13 ± 0.23
